Measurements as given in article PMC5467231, “The signalling receptor MCAM coordinates apical-basal polarity and planar cell polarity during morphogenesis” (Nature Communications, 2017).

Molecular target: T1, recombinant human MCAM/Fc chimera (Sino Biological 10115-H02H) (human, UniProt P43121 24-559)
T1 construct: melanoma cell adhesion molecule (MCAM), human, part fused to Fc; IgG1 Fc served as the control chimera; source: bought: Sino Biological Inc
T1 sequence (looked up): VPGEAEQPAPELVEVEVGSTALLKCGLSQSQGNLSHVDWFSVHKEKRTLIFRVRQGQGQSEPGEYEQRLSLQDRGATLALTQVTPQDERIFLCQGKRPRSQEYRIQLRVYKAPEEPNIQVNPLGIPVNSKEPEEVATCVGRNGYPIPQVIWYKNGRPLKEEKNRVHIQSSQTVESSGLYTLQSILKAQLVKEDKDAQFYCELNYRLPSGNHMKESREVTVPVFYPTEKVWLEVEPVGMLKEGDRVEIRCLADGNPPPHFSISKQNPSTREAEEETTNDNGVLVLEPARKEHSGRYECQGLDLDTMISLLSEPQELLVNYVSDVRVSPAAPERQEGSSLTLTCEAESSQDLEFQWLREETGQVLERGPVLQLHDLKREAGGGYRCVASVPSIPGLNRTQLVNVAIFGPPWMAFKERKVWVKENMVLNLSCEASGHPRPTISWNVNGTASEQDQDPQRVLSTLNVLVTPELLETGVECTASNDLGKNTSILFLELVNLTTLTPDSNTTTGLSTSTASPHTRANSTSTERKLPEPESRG
Test: SPR; Biacore T100, CM5 chip, room temperature, 1x PBS with 0.05% Tween 20; MCAM/Fc, FGFR1/Fc, FGFR2/Fc or IgG1 Fc immobilised by amine coupling, soluble FGF2, FGF4 or FGF8 flowed over; 1:1 binding model
Details: both partners purified

Kd: 0.97 nM
B1: recombinant FGF4 (Peprotech AF-100-31) (ligand, UniProt P08620 31-206, looked up)
chain: APTAPNGTLEAELERRWESLVALSLARLPVAAQPKEAAVQSGAGDYLLGIKRLRRLYCNVGIGFHLQALPDGRIGGAHADTRDSLLELSPVERGVVSIFGVASRFFVAMSSKGKLYGSPFFTDECTFKEILLPNNYNAYESYKYPGMFIALSKNGKTKKGNRVSPTMKVTHFLPRL
notes: fibroblast growth factor 4, recombinant, soluble; also called soluble FGF4; source: bought: Peprotech
